Data on 22 molecules can be found in patent publication US20210292393A1 (published 2021).

First the molecules themselves.
B1: anti-SARS-CoV-2 antibody 555 (antibody, V domains shown)
VH: QVQLVQSGAEVKKPGSSVKVSCKASGGTFSNYAISWVRQAPGQGLEWMGRIIPILGIANYAQKFQGRVTITADKSTSTAYMELSSLRSEDTAVYYCARGYYEARHYYYYYAMDVWGQGTAVTVSS
VL: not shown
B2: anti-SARS-CoV-2 antibody 488 (antibody, V domains shown)
VH: EVQLVESGGGLIQPGGSLRLSCAASGLTVSSNYMSWVRQAPGKGLEWVSVIYSGGSTYYADSVKGRFTISRDNSKNTLYLQMNSLRAEDTAVYYCARSPYGGNSWGQGTLVTVSS
VL: not shown
B3: anti-SARS-CoV-2 antibody 419 (antibody, V domains shown)
VH: QVQLVQSGAEVKKPGASVKVSCKASGYTFTSYYMHWVRQAPGQGLEWMGIINPSGGSTSYAQKFQGRVTMTRDTSTSTVYMELSSLRSEDTAVYYCARDWTQSSGYDYYYGLDVWGQGTTVTVSS
VL: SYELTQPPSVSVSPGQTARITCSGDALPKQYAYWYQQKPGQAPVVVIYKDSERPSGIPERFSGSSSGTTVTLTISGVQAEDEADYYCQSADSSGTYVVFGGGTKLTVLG
B4: anti-SARS-CoV-2 antibody 408 (antibody, V domains shown)
VH: QVQLVESGGGVVQPGRSLRLSCAASGFTFSSYAMHWVRQAPGKGLEWVAVISYDGSNKYYADSVKGRFTISRDNSRNTLYLQMNSLRAEDTAVYYCAKGADTPHYSGYDFLSVGYYYYGMDVWGQGTTVTVSS
VL: DIQMTQSPSSLSASVGDRVTITCRASQSISSYLNWYQQKPGKAPKLLIYAASSFQSGVPSRFSGSRSGTDFTLTISSLQPEDFATYYCQQSYSAPFTFGPGTKVDIKR
B5: anti-SARS-CoV-2 antibody 506 (antibody, V domains shown)
VH: QITLKESGPTLVKPTQTLTLTCTFSGFSLSTSGVGVGWIRQPPGKALEWLALIYWDDDKRYSPSLKSRLTITKDTSKNQVVLTMTNMDPVDTATYYCAHHSLSSIFDYWGQGTLVTVSS
VL: QSALTQPASVSGSPGQSITISCTGTSSDVGDYNYVSWYQQHPGKAPKLMIYEVSNRPSGVSNRFSGSKSGNTASLTISGLQAEDEADYYCSSYTSSSTVFGGGTKLTVLG
B6: anti-SARS-CoV-2 antibody 483 (antibody, V domains shown)
VH: QVQLQESGPGLVKPSETLSLTCTVSGGSISSYYWSWIRQPPGKGLEWIGYIYYSGSTNYNPSLKSRVTISVDTSKNQFSLKLSSVTAADTAVYYCARAPEEKSSEIGELVGWGWFDPWGQGTLVTVSS
VL: not shown
B7: anti-SARS-CoV-2 antibody 462 (antibody, V domains shown)
VH: QVQLVESGGGVVQPGRSLRLSCAASGFTFSSYGMHWVRQAPGKGLEWVAVIWYDGNNKYYADSVKGRFTISRDNSKNTLYLQMNSLRAEDTAVYYCAKDPTWFGELPSYYYYGMDVWGQGTTVTVSS
VL: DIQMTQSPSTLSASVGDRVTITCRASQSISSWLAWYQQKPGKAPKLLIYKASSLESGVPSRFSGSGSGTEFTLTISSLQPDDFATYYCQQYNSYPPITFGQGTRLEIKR
B8: anti-SARS-CoV-2 antibody 481 (antibody, V domains shown)
VH: EVQLVESGGGLIQPGGSLRLSCAASGFTVSSNYMSWVRQAPGKGLEWVSVIYSGGSTFYADSVKGRFTISRDNSKNTLYLQMNSLRAEDTAVYYCAREVAGTYDYWGQGTLVTVSS
VL: DIQMTQSPSSVSASVGDRVTITCRASQGISSWLAWYQQKPGKAPKLLIYAASSLQSGVPSRFSGSGSGTDFTLTISSLQPEDFATYYCQQANSFPGGTFGPGTKVDIKR
B9: antibody 365 (antibody, V domains shown)
VH: QVQLVESGGGVVQPGRSLRLSCAASGFNLSSYAMHWVRQASGKGLEWVSLISYDGSIKYYTDSVKGRFTVSGDNSKNTLFLQMNSLRPDDSALYYCVRGGVSGPNSFDMWGQGTTVTVSS
VL: DVVMTQSPLSLPVTLGQPASISCRSSQSLVYSDGNTYVNWFQQRPGQSPRRLIYKVSIRASGVPDRFSGSGSGTDFALKISRVEAEDVGVYYCMQGTHWPVTFGQGTKVEIK
B10: antibody 327 (antibody, V domains shown)
VH: QVQLVESGGGVVQPGRSLRLSCAASGFNLSNYAMHWVRQASGKGLEWVSLISYDGSIKYYTDSVKGRFTVSGDNSKNTLFLQMNSLRPDDSALYYCVRGGVSGPNSFDMWGQGTTVTVSS
VL: DVVMTQSPLSLPVTLGQPASISCRSSQSLVYSDGNTYVNWFQQRPGQSPRRLIYQVSIRASGVPDRFSGSGSGTDFALKISRVEAEDVGIYYCMQGTHWPVTFGQGTKVEIK
B11: antibody 326 (antibody, V domains shown)
VH: QITLKESGPTLVKPTQTLTLTCTFSGFSLNTSGVGVGWIRQPPGKALEWLSLIFWNDDKRYSPSLRSRLTITKDTSKNQVVLTMTNMDPVDTATYFCAHRNSGWSLKFDSWGQGSLVTVSA
VL: DIQMTQSPSSVSASVGDRVTITCRARQGISSWLVWYQQKPGKAPKLLIFGASSLQSGVPSRFNASGTGTEFTLTISSLQPEDFATYYCQQADSFPITFGQGTRLEIK
B12: antibody 348 (antibody, V domains shown)
VH: QVQLVQSGSELKKPGASVKVSCKASGYTFTSYAMNWVRQAPGQGLEWMGWINTNTGNPTYAQGFTGRFVFSLDTSVSTAYLQISSLKAEDTAVYYCARDHELPNTSSWFGHFEYWGQGTLVTVSS
VL: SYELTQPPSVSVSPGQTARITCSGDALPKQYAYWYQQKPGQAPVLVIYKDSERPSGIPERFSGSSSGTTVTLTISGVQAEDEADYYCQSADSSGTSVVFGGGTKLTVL
B13: antibody 323 (antibody, V domains shown)
VH: QVQLVQSGAEVKKPGASVKVSCKVSGYTLTELSMHWVRQAPGKGLEWMGGFDPEDGETIYAQKFQGRVTMTEDTSTDTAYMELSSLRSEDTAVYYCATSTIFAPGGWFDPWGQGTLVTVSS
VL: QSALTQPASVSGSPGQSITISCTGTSSDVGSYNLVSWYQQHPGKAPKLMIYEVSKRPSGVSNRFSGSKSGNTASLTISGLQAEDEADYYCCSYAGSTHYVFGTGTKVTVL
B14: antibody 324 (antibody, V domains shown)
VH: QVQLQESGPGLVKPSGTLSLTCAVSGGSISSSNWWSWVRQPPGKGLEWIGEIYHSGSTNYNPSLKSRVTISVDNSKNQFSLKLSSVTAADTAVYYCARESVAAAGISYYYYGMDVWGQGTTVTVSS
VL: EIVLTQSPGTLSLSPGERATLSCRASQSVSGRYLAWYQQKPGQAPRLLIYGASSRATGIPDRFSGSGSGTDFTLTISRLEPEDFAVYYCQHYGSSPGTFGQGTRLEIK
B15: antibody 343 (antibody, V domains shown)
VH: QVQLVESGGDVVQPGTSLRLSCAASGFTFNNYGFHWVRQAPGKGLEWVALISSDGASTHYADSVKGRFTISRDSSVNTLYLQMNSLSLEDTAVYYCATGHCGTTCYYFDYWGQGTLVSVSS
VL: DIQVTQSPSYLSASVGDRVTITCRASQTISTFLQWYQQKVGKAPKLLIYAASTLQSGVPSRFSGSGSGTDFSLTISSLQPEDFATYYCQQSYSAPLSFGGGTKVEIK
B16: antibody 344 (antibody, V domains shown)
VH: QVQLVESGGGVVQPGRSLRLSCAASGFTFSSYAMHWVRQAPGKGLEWMAVISYDGSNKYYADSVKGRFTISRDNSKNTLYLQMNSLRAEDTAVYFCAKGYSGSYYEPFDYWGQGTLVTVSS
VL: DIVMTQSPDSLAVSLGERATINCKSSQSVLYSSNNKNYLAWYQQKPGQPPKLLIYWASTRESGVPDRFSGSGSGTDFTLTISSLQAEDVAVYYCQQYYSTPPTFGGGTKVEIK
B17: antibody 340 (antibody, V domains shown)
VH: QVQLVQSGAEVKKPGASVKVSCKASGYTFTSYDINWVRQATGQGLEWMGWMNPNSGNTGYAQKFQGRVTMTRNTSISTAYMELSSLRSEDTAVYYCARGRYCTGGVCWGDWYFDLWGRGTLVTVSS
VL: QSVLTQPPSVSGAPGQRVTISCTGSSSNIGAGYDVHWYQQLPGTAPKFLIYGNSNRPSGVPDRFSGSKSGTSASLAITGLQAEDEADYYCQSYDSSLSGPVFGGGTKLTVL
B18: antibody 331 (antibody, V domains shown)
V domain 1: QITLKESGPTLVKPTETLTLTCSFSGFSLTKTGEAAGWIRQAPGRALEWVTVIFWDDDKRYSPSLQNRISVTKDTSKNQVVLRMTNVARFDTGTYFCWAMGGPGKEYFGQGTLVAVSS
V domain 2: QSVLTQPPSVSGAPGQRVTISCTGTSSSIGPYSDVHWYQHVSGKAPRLLIFGNSNRPSGVPDRFSGSKSGTSASLVIAGLQAEDEADYYCQSYDSSLGEIYVFGTGTTVTVL
B19: antibody 339 (antibody, V domains shown)
V domain 1: QITLKESGPTLVKPTETLTLTCSFSGFSLTRTGEAAGWIRQAPGRALEWVTVIFWDDDKRYSPSLQSRLTVTKDTSKNQVVLTMTNVARFDTATYFCWAMGGPGKEYFGQGTQVAVSS
V domain 2: QSVLTQPPSVSGAPGQRVTISCTGTSSSIGPYSDVHWYQHVSGKAPRLLIFGNSNRPSGVPDRFSGSKSGTSASLVIAGLQAEDEADYYCQSYDSSLGEIYVFGTGTTVTVL
B20: antibody 345 (antibody, V domains shown)
VH: QVQLQESGPGLVKPSQTLSLTCTVSGGSISSGDYYWSWIRQPPGKGLEWIGYIYYSGSTYYNPSLKSRVTISVDTSKNQFSLKLSSVTAADTAVYYCARVGMVDNWNFEGNWFDPWGQGTLVTVSS
VL: QSALTQPRSVSGSPGQSVTISCTGTSSDVGGYNYVSWYQQHPGKAPKLMIYDVSKRPSGVPDRFSGSKSGNTASLTISGLQAEDEADYYCCSYAGSVVFGGGTKLTVL
B21: antibody 329 (antibody, V domains shown)
VH: EVQLVESGGGLVQPGGSLRLSCAASGFTFSSYWMHWVRQAPGKGLVWVSRINSDGSSTSYADSVKGRFTISRDNAKNTLYLQMNSLRAEDTAVYYCAREGIVATITLDYWGQGTLVTVSS
VL: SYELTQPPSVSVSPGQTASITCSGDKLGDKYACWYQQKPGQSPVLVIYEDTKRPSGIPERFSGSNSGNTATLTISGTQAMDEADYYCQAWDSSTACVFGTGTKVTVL
B22: antibody 333 (antibody, V domains shown)
VH: QVHLVESGGGVVLPGRSLRLSCSASQFIFSNYDMHWVRQSPGMGLEWVAGISSDGSDKYYIDSVRGRFTISRDNAKNTLFLQMNSLTTEDTAVYSCAKGGGKFGQYWGRGTLVTVSS
VL: AIQMTQSPSSLSASVGDRVTITCRASQVIRNDLAWFQQKPGEAPNLLVYSASNLQSGVPSRFSGSGSGTDFTLTISSLQPEDFATYYCLQDYSYPYTFGQGTKLDMK

One experiment addresses SARS-CoV-2 full-length spike protein on pseudotyped lentivirus (SARS-CoV-2, UniProt P0DTC2 14-1273). The experiment can be described thus: cell-based or functional assay.
For the molecule B1, the “IC50 (pseudoneutralization)” value was 0.38 µg/mL and the “IC80 (pseudoneutralization)” value was found to be 1.4 µg/mL.

For the molecule B2, the “IC50 (pseudoneutralization)” value was found to be 3.52 µg/mL and the “IC80 (pseudoneutralization)” value was more than 50 µg/mL.

Consider B3, for which the “IC50 (pseudoneutralization)” value is more than 50 µg/mL and the “IC80 (pseudoneutralization)” value was more than 50 µg/mL.

For the molecule B4, the “IC50 (pseudoneutralization)” value was more than 50 µg/mL and the “IC80 (pseudoneutralization)” value was more than 50 µg/mL.

As to B5, the “IC50 (pseudoneutralization)” value is more than 50 µg/mL and the “IC80 (pseudoneutralization)” value is more than 50 µg/mL.

In the case of B6, the “IC50 (pseudoneutralization)” value was more than 50 µg/mL and the “IC80 (pseudoneutralization)” value is more than 50 µg/mL.

In the case of B7, the “IC50 (pseudoneutralization)” value was more than 50 µg/mL and the “IC80 (pseudoneutralization)” value is more than 50 µg/mL.

With B8, the “IC50 (pseudoneutralization)” value was 17.2 µg/mL and the “IC80 (pseudoneutralization)” value is more than 50 µg/mL.

In another experiment the target is SARS-CoV-2 spike (S) protein, full length, wild type, expressed on the surface of CHO cells (SARS-CoV-2, UniProt P0DTC2 14-1273).
Assay: not given
Take B9: the “median fluorescence fold over isotype” value worked out at 10.7 fold over isotype.

As for B10, the “median fluorescence fold over isotype” value amounted to 9.54 fold over isotype.

Take B11: the “median fluorescence fold over isotype” value was 10.1 fold over isotype.

B12: the “median fluorescence fold over isotype” value was 19.6 fold over isotype.

Take B13: the “median fluorescence fold over isotype” value is 20.6 fold over isotype.

For B14, the “median fluorescence fold over isotype” value was 9.44 fold over isotype.

For B15, the “median fluorescence fold over isotype” value was found to be 1.12 fold over isotype.

As to B16, the “median fluorescence fold over isotype” value was 7.55 fold over isotype.

Regarding B17, the “median fluorescence fold over isotype” value amounted to 33.2 fold over isotype.

On to B18, for which the “median fluorescence fold over isotype” value came to 20.1 fold over isotype.

With B19, the “median fluorescence fold over isotype” value was determined as 21.2 fold over isotype.

For B20, the “median fluorescence fold over isotype” value was determined as 11.7 fold over isotype.

For the molecule B21, the “median fluorescence fold over isotype” value worked out at 9.41 fold over isotype.

In the case of B22, the “median fluorescence fold over isotype” value was determined as 1.27 fold over isotype.
